Assay results reported in PMC2174347 (The Journal of Cell Biology, 2000).

Biological target: wild-type ezrin 1-586 (UniProt P15311 1-586)
Assay: solid phase assay

binding result: binds
B1: ezrin 1-333 K63N, K64N, K253N, K254N, K262N, and K263N (domain or fragment, UniProt P15311 1-333, looked up)
chain: MPKPINVRVTTMDAELEFAIQPNTTGKQLFDQVVKTIGLREVWYFGLHYVDNKGFPTWLKLDNNVSAQEVRKENPLQFKFRAKFYPEDVAEELIQDITQKLFFLQVKEGILSDEIYCPPETAVLLGSYAVQAKFGDYNKEVHKSGYLSSERLIPQRVMDQHKLTRDQWEDRIQVWHAEHRGMLKDNAMLEYLKIAQDLEMYGINYFEIKNKKGTDLWLGVDALGLNIYEKDDKLTPKIGFPWSEIRNISFNDNNFVIKPIDNNAPDFVFYAPRLRINKRILQLCMGNHELYMRRRKPDTIEVQQMKAQAREEKHQKQLERQQLETEKKRRETV
